Data reported in US20230287084A1.

Columns and labels:
Experiment in all cases: cell-based or functional assay
GDF-8 = target: T1, GDF-8 (UniProt O14793)
T1 sequence (looked up): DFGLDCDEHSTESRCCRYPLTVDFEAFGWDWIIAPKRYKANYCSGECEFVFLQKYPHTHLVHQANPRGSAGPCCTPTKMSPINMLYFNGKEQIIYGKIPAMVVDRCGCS

activin A = target: T2, activin A (UniProt P08476)
T2 sequence (looked up): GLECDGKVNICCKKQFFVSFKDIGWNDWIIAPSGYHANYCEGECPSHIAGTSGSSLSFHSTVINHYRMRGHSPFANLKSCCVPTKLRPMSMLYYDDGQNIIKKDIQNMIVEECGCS

BMP-9 = target: T3, BMP-9 (UniProt Q9UK05)
T3 sequence (looked up): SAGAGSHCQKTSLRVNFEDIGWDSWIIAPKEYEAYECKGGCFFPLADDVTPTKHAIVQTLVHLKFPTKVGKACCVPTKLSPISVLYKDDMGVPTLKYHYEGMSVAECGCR

BMP-10 = target: T4, BMP-10 (UniProt O95393)
T4 sequence (looked up): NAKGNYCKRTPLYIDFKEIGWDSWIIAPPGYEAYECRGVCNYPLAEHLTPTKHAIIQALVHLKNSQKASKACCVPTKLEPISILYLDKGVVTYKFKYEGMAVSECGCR

GDF-11 = target: T5, GDF-11 (UniProt O95390)
T5 sequence (looked up): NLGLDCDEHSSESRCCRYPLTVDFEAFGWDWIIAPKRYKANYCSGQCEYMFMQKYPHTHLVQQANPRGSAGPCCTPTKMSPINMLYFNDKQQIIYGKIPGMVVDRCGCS

activin B = target: T6, activin B (UniProt P09529)
T6 sequence (looked up): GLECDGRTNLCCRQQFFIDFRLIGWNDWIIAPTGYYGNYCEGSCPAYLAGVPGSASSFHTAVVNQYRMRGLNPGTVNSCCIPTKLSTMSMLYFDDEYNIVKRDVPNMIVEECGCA

Substance | Avg IC50, GDF-8 neutralization (HEK293 TGFβ-reporter) (GDF-8) [nM] | Avg IC50, activin A neutralization (HEK293 TGFβ-reporter) (activin A) [nM] | Average IC50, BMP-9 neutralization (HepG2 BMP-reporter) (BMP-9) [nM] | Average IC50, BMP-10 neutralization (HepG2 BMP-reporter) (BMP-10) [nM] | Avg IC50, GDF-11 neutralization (HEK293 TGFβ-reporter) (GDF-11) [nM] | Avg IC50, activin B neutralization (HEK293 TGFβ-reporter) (activin B) [nM] | further results
P709 (hActRIIB - F58Q, 39aa linker, IgG1 FcDL) (Fc fusion) | 0.29 | 0.42 | 58 | – | – | – | fold increase of inhibition potency relative to P1218 (GDF-8): 2.8 fold; fold increase of inhibition potency relative to P1218 (activin A): 2.6 fold
P708 (hActRIIB - F58Q, 14aa linker, IgG1 FcDL) (Fc fusion) | 0.55 | 0.62 | 110 | 1.4 | 0.42 | 0.66 | –
P698 (hActRIIB - F58K, 3aa linker, IgG1 FcDL) (Fc fusion) | 2.1 | 4.3 | 657 | – | – | – | fold higher inhibition potency relative to P444 (GDF-8): 1.5 fold; fold lower inhibition potency relative to P444 (BMP-9): 2.6 fold
P694 (hActRIIB - F58Y, 14aa linker, IgG1 FcDL) (Fc fusion) | 0.65 | 0.79 | 1.8 | 1.9 | 0.73 | 1.3 | –
P762 (hActRIIB - V75Q, 14aa linker, IgG1 FcDL) (Fc fusion) | 66 | > 1000 | > 1000 | > 1000 | 27 | > 1000 | –
P701 (hActRIIB - F58K, 14aa linker, IgG1 FcDL) (Fc fusion) | 1.1 | 0.52 | 386 | 0.96 | 0.75 | 0.55 | –
P719 (hActRIIB - Q29Y + F58E, 14aa linker, IgG1 FcDL) (Fc fusion) | 0.61 | 0.63 | > 100 | 1.7 | 0.58 | 2.3 | –
P758 (hActRIIB - G27D, 14aa linker, IgG1 FcDL) (Fc fusion) | – | 1.1 | 1.2 | 1.9 | 1.4 | 2.4 | –
P757 (WT hActRIIB, 14aa linker, IgG1 FcDL) (Fc fusion) | 0.31 | 0.47 | 0.27 | 1.2 | 0.34 | 0.55 | % increase of potency relative to P75 (BMP-10): 67%; % increase of potency relative to P75 (GDF-8): 116%; % increase of potency relative to P75 (GDF-11): 124%; % increase of potency relative to P75 (activin A): 389%; % increase of potency relative to P75 (BMP-9): 900%; % increase of potency relative to P75 (activin B): 155%
P759 (hActRIIB - D57E, 14aa linker, IgG1 FcDL) (Fc fusion) | 397 | 274 | > 1000 | > 1000 | 137 | 227 | % increase of potency relative to P120 (GDF-8): 60%; % increase of potency relative to P120 (GDF-11): 86%; % increase of potency relative to P120 (activin A): 73%; % increase of potency relative to P120 (activin B): 77%
P75 (wild type human ActRIIB-ECD-Fc) (Fc fusion) | 0.67 | 2.3 | 2.7 | 2 | 0.76 | 1.4 | –
P720 (hActRIIB - D30Q + F58E, 14aa linker, IgG1 FcDL) (Fc fusion) | 0.77 | 0.97 | 914 | 2.3 | 0.54 | 2.7 | –
P761 (hActRIIB - K31Y, 14aa linker, IgG1 FcDL) (Fc fusion) | 12 | 8.4 | 8.7 | 22 | 8.6 | 41 | % decrease of potency relative to P124 (GDF-8): 64%; % decrease of potency relative to P124 (GDF-11): 61%; % decrease of potency relative to P124 (activin A): 58%; % increase of potency relative to P124 (BMP-9): 83%; % decrease of potency relative to P124 (activin B): 88%
P718 (hActRIIB - D57E + F58E, 3aa linker, IgG1 FcDL) (Fc fusion) | > 1000 | > 1000 | > 1000 | > 1000 | > 1000 | > 1000 | –
P444 (wild type human ActRIIA-ECD-Fc) (Fc fusion) | 3.1 | 2.7 | 248 | 3.7 | 1.6 | 0.95 | IC50, GDF-8 neutralization (HEK293 TGFβ-reporter) (GDF-8): 3.06 nM; IC50, BMP-9 neutralization (HepG2 BMP-reporter) (BMP-9): > 100 nM
P715 (hActRIIB - F58W, 14aa linker, IgG1 FcDL) (Fc fusion) | 0.83 | 0.9 | 60 | 2.4 | 0.9 | 1.4 | –
